Reference: the DeepSol protein solubility set

Assay: soluble on expression in E. coli; label from the status in PepcDB or PDB records

| Sequence | soluble on expression in E. coli |
| --- | --- |
| MSLNRFRKWLYKPKRSDPQLLARFYYADEELNQVAAELDSLDGRKDPQRCTLLVSQFRSCQDNVLNIINQIMDECIPQDRAPRDFCVKFPEEIRHDNLAGQLWFGAECLAAGSIIMNRELESMAMRPLAKELTRSLEDVRGALRDQALRDLNTYTEKMREALRHFDVLFAEFELSYVSAMVPVKSPREYYVQQEVIVLFCETVERALDFGYLTQDMIDDYEPALMFSIPRLAIVCGLVVYADGPLNLDRKVEDMSELFRPFHTLLRKIRDLLQTLTEEELHTLERNLCISQDVEFPIRADEGHHHHHH | not soluble |
| MGSDKIHHHHHHMNLTELMERIPHLREILNIVREAFKDYDDPAHDISHTFRVMENASEIASREKCDLQKAIIAALLHDIKRPHEALTGVDHAESGAEYASGLLPTMGFDISFVAEVSKAIRSHRYSGGLTPTSLTGKILQDADRLDAIGAVAIARVFSYSGKTGTPLHSLQFSPRSSYSGNSRSSINHFHEKILKIRPETFWTETARKMAEDRYSFVVEFVQRFLAEWGQI | not soluble |
| MAETDPKSVQDLTAVVQTLLQQMQDKFQTMSDQIIGRIDEMSTRIDDLEKNIADLMTQAGVEEIEGENKVKEGDAS | soluble |
| MTSQPLRVGIGGPVGSGKTALTLALCRELRERYNLAVVTNDIYTQEDAEFLVRNEALAPERIIGVETGGCPHTAIREDASINLEAVDQLNRRFPGLELILVESGGDNLSATFSPELSDLTLYVIDVSAGDKIPRKGGPGICKSDLLVINKIDLAPLVGASLDVMDRDARRMRGDKPFVFSNQKTGQGLDEIIAFIERQGLLTAA | not soluble |
| MSLKVVIGYLALDDWEFESLFPTIEWKYLTHINASFARVKADGTLNINPVRKRIESVRETAHKHNVKILISLAKNSPGEFTTAINDPKARKELIQQIIAFTKEYKLDGFDIDYEEYDNWDKNFPSLLVFARGLYLAKEKNMLMTCAVNSRWLNYGTEWEQYFDYINLMSYDRGAFTDKPVQHASYDDFVKDLKYWNEQCRASKSKIVGGLPFYGYSWEESLQGAVDDVRGIRYSGILKHLGNEAADKDNIGKTYYNGRPTIANKCKFIKENDYAGVMIWQLFQDAHNDNYDLKLINVVGREMMEEGHHHHHH | soluble |
| MSLESIQSSLKHMTGNRSFEKQFTQLKEAVFRSPHVQLFLEEHPSLSPITLEQGLSKLYEYQKEQSHCAHCPGLQKCPNLMKGYQPTLYVERDSLELSYSPCPLKEEEEREKKKRSLIRSLYIPKEILEAKFDDVESEPGRSIASHRALEFALSAKPGEDGMGLYLYGKFGVGKTFLMGAIANELKDRGIDSTIVYVPDFFRELKQSIGDGTFQQKLDFVKNAQVLIFDDIGAETMTSWVRDDVLGVILQYRIMEKLPTLFTSNYDYDELEEHLAYNDKSGTELLKAKRVMERIRHYTVSVMVQGQNRREHQSEGHHHHHH | soluble |
| MINKPNQFLNHLDGLKQHFSDYDSLQKSFKKYLSENQTELNNFFFNQFEKIIVLVKKKEFKTAQERCEEELATPYFSKPLVGFFQSLLQLINHDLIEQKNQQLANMSCEKIVEMVLSDYPNKLNLIHYLLAKEASFVNPNLLQRMTFVLTDLELLELKRFSFFKALNQIPAFKNHKVTYFNSKLKQKFVITLGEFAFPQTDKTKQFFQQLIKKVSQLFLKEPVSCEFAYEIIDALLVSFFPLHPNLEVNHLAKKIHQYVSKIVINEVVDLKDPTTKLIVDTLYEQLDRAIGEEN | soluble |
| MEHPNLEENVGEQDFASNDRFFNSYNIVPRRILQANYDSSLRQMEGYQEEIETDNPINESRGDEAEELENEGCDDRDRCTSRNSIDSEIYENSDEEVYDESMYESEEEYADSPFIIDKMEECLQNHQIGELGSRVMEGLETGTLADVQLEEFCRSRVKPEVTPREFYEELASSGNGDWKKFSMGQFVLSKMKSSKDTAWANTEATVNSLAANLSKANTVGSIVKRVISREYAIEEKDGFPRYNLTNFYNNTTLQGQGAVAQLTSVYVGFLKNLFKPSFKIWLFTYRPSSAYNFDKHFVEYPASVIDTIFGRKLDAFSMEVLGVYLPEDLLVGGCYNVSDASETFLQSLGENASKEVERRRKFRGPARKTCIGAMAAAMKSLRQHHYNAARDTVSYCSARSDCKEHLTWHQLRFYRAHSGKTKEECDLARPDDVMAFCRERAMPRYSLSPNRDATS | soluble |
| MSLNILVIGTGAIGSFYGALLAKTGHCVSVVARSDYETVKAKGIRIRSATLGDYTFRPAAVVRSAAELETKPDCTLLCIKVVEGADRVGLLRDAVAPDTGIVLISNGIDIEPEVAAAFPDNEVISGLAFIGVTRTAPGEIWHQAYGRLMLGNYPGGVSERVKTLAAAFEEAGIDGIATENITTARWQKCVWNAAFNPLSVLSGGLDTLDILSTQEGFVRAIMQEIRAVAAANGHPLPEDIVEKNVASTYKMPPYKTSMLVDFEAGQPMETEVILGNAVRAGRRTRVAIPHLESVYALMKLLELRTSKSLWGNEGHHHHHH | soluble |
| MPVKIPDHLPAAGILESENIFVMSETRAANQDIRPMKVLILNLMPNKIETETQLLRLLGNTPLQVDVDLLRIHDKESKHTSIDHMNTFYRDFEDVRHKNYDGLIITGAPLGQIDFEDVTYWDHIREIIDWSQQHVTSVLFLCWAAHAGLYHLYGLNRKILEQKRSGVFVHRRTCQHFPLLRGFDDEFFAPHSRFAEMDVEEIRQHPQLQLLAESDEAGAYLVLSRNNRNLFVMGHPEYQKSTLNDEYHRDLAQSLNPNVPQNYYRNDDPKADAIARWHSHGSLLVSNWLNYYVYQLTPYDLSDMTAMTPWESQMAGDPLEHHHHHH | soluble |
| MSLSDPHHPHIQTHNAWVEFPIFDAKSRSLKKAVLGKAGGTIGRNNSNVVVIEALRDITMELNLGDRVGLVGHNGAGKSTLLRLLSGIYEPTRGWAKVTGRVAPVFDLGIGMDPEISGYENIIIRGLFLGQTRKQMQAKVDEIAEFTELGEYLSMPLRTYSTGMRVRLAMGVVTSIDPEILLLDEGIGAVDADFLRKAQSRLQNLVERSGILVFASHSNEFLARLCKTAIWIDHGVIRLAGGIEEVVRAYEGEDAARHVREVLAETEGHHHHHH | soluble |
| MSLKLNTSNSPFTEKQVTEINNLLQTLTESQQQWLSGFLLANSNDTTSDSNQQQLETEVWQQSQISEEQATSTTYMLQNKEPHIEANQRHVTVLYGSESGNAMRLAEIFSERLSDIGHQVVLMSMDEYDTTNIAQLEDLFIITSTHGEGEPPDNAWDFFEFLEDDNAPNLNHVRYSVLALGDQTYEFFCQAGKDVDALLENLGAERICKRVDCDIDYEEDAEKWMADIINMIDTTSEGIQSESVISESIKSAKEKKYSKLNPYQAEVLANINLNGTDSNKETRHIEFLLDDFSESYEPGDCIVALPQNDPELVEKLISMLGWDPQSPVPINDRGDTVPIVEALTSHFEFTKLTLPLLKNADIYFDNEELSERIQDESWAREYVINRDFIDLITDFPTIELQPENMYQILRKLPPREYSISSSFMATPDEVHITVGTVRYQAHGRERKGVCSVHFAERIKPGDIVPIYLKKNPNFKFPMKQDIPVIMIGPGTGIAPFRAYLQEREELGMTGKTWLFFGDQHRSSDFLYEEEIEEWLENGNLTRVDLAFSRDQEHKEYVQHRIMEESERFNEWIEQGAAIYICGDEKCMAKDVHQAIKDVLVKERHISQEEAELLLRQMKQQQRYQRDVYEGHHHHHH | soluble |
| MSIIFAKLLLIILSYTHMKEKARNVYMVAGGVTKFAKASPEMDFRLRVKKAFDYAMNDAGLTLADIDGSVASYFSDHFQRQLMSGIMVQDYLGLVPKPSKRIEGGGATGGLAFQAGYEEIASGRMDTVAVYGFETMSHVNTWKGNEFIALASDTNFDYPIGGFYTGYYAMMAVRHMYEFGTTVEQLAKVSVKNHGNALHNPYAQSPMKLTVEDVRNAPMVSYPLTRLDVCAMSDGAAVAILASEDKAFEITDHPVLIKGIGTGTDSMRLADRPFGDVPLLPNEKPSDYKDLKYPGVHSFRAGRMAAKEAYEMAGITDPLNELDLIELHDAYTSSEIQTYEDLGLCKYGEGGQFIDEGKPELHGKIPVNPSGGLLAAGHPVGATGIMQAVFMFWQLQHTIKKHFHDDYLQVPNAKRGLIHSHAGTGTYVTVTIMEAAK | not soluble |
| MSEQNTAKTLPDRNEIEESSTWRLEDIFQTDTEWEKEFQAIKELLPKLTEFKGKLGDSANNLLEALQYEDEISMRLGKLYTYAHMRYDQDTTNSVYQALNDRATNLYSQVSSSTAYIVPEILSISEDTLQTFLKENRDLSVYEHALEEITRQRPHVLSEAEEALLAEASEVMSTSSNTFGMLNNADLKFPSIKGEDGEEVEITHGRYIQFLESDDRRVREDAFKAVYETYGKYKNTFASTLSGAVKRNNFNARVRKYDSARQAALSNNNIPEAVYDQLIESVNDNLHLLHRYIDIRKRALGLDELHMYDLYTPLVPEVKMNVKYEEAQDMLLKSLHVLGDEYVDILKEAYENRWVDVYENKGKRSGAYSSGAYGTNPYILMNWHDNVNNLFTLAHEFGHSVHSYYTRKTQPHVYGDYSIFVAEVASTCNEALLNDYLLKTTEDKKERLYLLNHYLEGFRGTVFRQTMFAEFEHIIHKKVQEGHAVTPDMLTEIYYDLNKKYFGDALVIDEEIGLEWSRIPHFYYNYYVYQYATGFSAATALSKQILEEGQPAVERYINEFLKAGSSDYPIEVLKKAGVDMASPEPVKEALQVFEEKLNELEALLFEEK | not soluble |
| MGSDKIHHHHHHMTKRILEVNVDDNGYSGVYSLIKRVIENKPADYQIDLACLEPFESQQNIDYLNKLGTQVYYIGYPGNKIKKQLKYYEKLQKVVKDGNYDYVHIHGDVANKLYVTALAARKADSGVKIILQSHASDVDGSHRQLKRFIHKSLRGKLVKLADCYVSVSDLASNWMFPSIPKSQVIKIMNGVDLAAFRYDPIIRKRIRKELGLSRKHVLGHIGRFAYQKNHQYLIQVFAKVYAQDPQARLLLVGKGDLQDECKHQVHDLGLDKQVIFYGLSSNTSELFQAMDVFLLPSHFEGLPIVGVEAQAAGLPVIFSDQITSEAKMTNNVSFLPIDETSLSAWQSQVIKDLELGHRDDYDLLSRQKLDITDTVAAFMKLYNS | not soluble |
| MGSDKIHHHHHHMSIRTRSRKSTPKQPESALRRWLKERHITEVECLVPDITGNARGKIIPADKFSHDYGTRLPEGIFATTVTGDFPDDYYALTSPSDSDMHLRPDASTVRMVPWAADPTAQVIHDCYTKDGQPHELAPRNVLRRVLEAYAEVKLQPVVAPELEFFLVQKNTDPDFPLLPPAGRSGRPETARQSYSIDAVNEFDPILDLMYDYCDAMELDVDTLIHESGAAQLEVNFTHADALSRADQVFLFKRTMREAALRHGVYATFLAKPMETEPGSAMHIHQSLLHAGTGKNVFSGKREGGFSDTFAHYLGGLQKYIPMAMGLLAPNVNSYRRLMFGEVSPSNVLWGFDNRTCGLRVPIDAPQNMRVESRFAGSDANPYLAMAATLACGLLGIREKLEPTAPISSNGKEQGYDLPRSLGEALDELEGCEALKEMLGPRFVRAYISVKRKEYETFFRVISSWEREFLLLNV | not soluble |
| MVGWWPVGRRQAWHRFFPCHRRPALRCDAHSFFAPGKHIMAHRILTLGEITDGFDVVLSDVWGVLHNGVSAFPDAAVALHEARKAGKTVVLITNSPRPAPGVIAQLRVLGVPDEAYDRIITSGDVTRGLIAEGPKKVFLLGPERDMPLLEGLDVERVGEAEAQSVVCTGFFDDETETPEDYTEMLKGFIARKVPMICANPDLVVERGERIIPCAGAMAAYYEQLGGEVRIAGKPHAPIYEACLAAAKDVRGAFAKDRVLAIGDGMPTDVKGAIASGLNLLYISGGIHAAEYTLNGQTDEALLNAYLKGQGAAPGWWMPRLA | not soluble |
| MILLDTNVISEPLRPQPNERVVAWLDSLILEDVYLSAITVAEMRLGVALLLNGKKKNVLHERMEQSILPLFAGRILPFDEPVAAIYAQIRSYAKTHGKEIAAADGYIAATAKQHSMTVATRDTGSFFAADVAVFNPWHLEHHHHHH | soluble |
